{"source": "patent US20110021611A1", "target": "CD81 on Huh7.5 cells (human) (UniProt P60033)", "sequence (P60033 whole entry)": "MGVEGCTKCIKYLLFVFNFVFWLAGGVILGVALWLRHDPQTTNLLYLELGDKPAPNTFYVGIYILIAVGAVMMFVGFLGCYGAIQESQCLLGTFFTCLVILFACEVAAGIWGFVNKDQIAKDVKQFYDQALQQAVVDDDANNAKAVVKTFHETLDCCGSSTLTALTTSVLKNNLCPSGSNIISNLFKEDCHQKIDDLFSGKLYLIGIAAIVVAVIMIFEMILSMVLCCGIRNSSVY", "test": "cell-based or functional assay", "data": [{"substance": "anti-CD81 (JS-81, BD Biosciences, Pharmingen) (antibody)", "values": [{"measurement": "inhibition of infection of Huh7.5 cells with SA13/JFH1C3405G-A3696G virus (FFU count)", "value": 90, "unit": "% inhibition"}]}]}
